According to patent US20230028110A1:
Values belong to the substance of their own block, whether it stands above or below them.

How the values were obtained:
[1] = target: TIGIT on Vδ1 γδ T-cells (human) (UniProt Q495A1); experiment: flow cytometry, anti-human IgG secondary antibody, Vδ1 γδ T-cells
[2] = target: TIGIT on activated CD8 T-cells (human) (UniProt Q495A1); experiment: flow cytometry, anti-human IgG secondary antibody, activated CD8 T-cells
[3] = target: Recombinant human TIGIT (human) (UniProt Q495A1); experiment: SPR (Reichert 4SPR), antibody on Protein A chip, antigen flown over
Sequence of Recombinant human TIGIT (human) (Q495A1 22-141 limits assumed): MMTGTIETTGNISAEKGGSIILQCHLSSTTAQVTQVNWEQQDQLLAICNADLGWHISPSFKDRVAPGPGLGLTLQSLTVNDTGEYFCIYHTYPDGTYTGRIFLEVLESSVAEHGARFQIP

[4] = target: OX40 on activated CD4 T-cells; experiment: flow cytometry on anti-CD3/anti-CD28-activated CD4 T-cells, anti-human IgG secondary antibody, % cells bound IgG
Sequence of OX40 on activated CD4 T-cells (chain, as listed by the source limits assumed): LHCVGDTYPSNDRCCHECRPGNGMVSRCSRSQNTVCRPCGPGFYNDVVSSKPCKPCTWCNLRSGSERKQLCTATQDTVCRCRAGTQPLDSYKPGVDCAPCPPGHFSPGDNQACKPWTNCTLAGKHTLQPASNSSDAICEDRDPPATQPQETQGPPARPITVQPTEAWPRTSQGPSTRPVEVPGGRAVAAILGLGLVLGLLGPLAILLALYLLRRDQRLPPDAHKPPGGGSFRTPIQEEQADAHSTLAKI

[5] = target: Recombinant human OX40 (human) (UniProt P43489); experiment: SPR (Reichert 4SPR), antibody on Protein A chip, antigen flown over
Sequence of Recombinant human OX40 (human) (P43489 29-216 limits assumed): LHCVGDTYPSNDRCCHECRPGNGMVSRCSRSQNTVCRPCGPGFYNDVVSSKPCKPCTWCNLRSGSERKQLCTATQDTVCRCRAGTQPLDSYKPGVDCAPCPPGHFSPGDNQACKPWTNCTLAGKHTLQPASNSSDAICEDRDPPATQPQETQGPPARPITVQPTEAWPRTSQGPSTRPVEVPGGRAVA

[6] = target: PD-1 on activated CD4 and CD8 T-cells; experiment: flow cytometry on anti-CD3/anti-CD28-activated CD8 T-cells, anti-human IgG secondary antibody, % cells bound IgG
Sequence of PD-1 on activated CD4 and CD8 T-cells (chain, as listed by the source limits assumed): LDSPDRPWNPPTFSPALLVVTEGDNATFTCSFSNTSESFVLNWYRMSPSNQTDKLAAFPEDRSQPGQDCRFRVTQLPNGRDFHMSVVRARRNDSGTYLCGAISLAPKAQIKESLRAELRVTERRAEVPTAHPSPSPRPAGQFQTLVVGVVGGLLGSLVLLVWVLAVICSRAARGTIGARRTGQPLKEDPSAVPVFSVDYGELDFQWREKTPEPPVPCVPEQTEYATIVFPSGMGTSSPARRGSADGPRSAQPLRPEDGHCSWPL

[7] = target: PD-1 on activated CD4 and CD8 T-cells; experiment: flow cytometry on anti-CD3/anti-CD28-activated CD4 T-cells, anti-human IgG secondary antibody, % cells bound IgG
[8] = target: FAPα on FAPα+ fibroblasts (human) (UniProt Q12884); experiment: flow cytometry on BJ fibroblasts, anti-human Fc secondary antibody, % IgG bound cells
[9] = target: Recombinant human FAPα (human) (UniProt Q12884); experiment: SPR (Reichert 4SPR), antibody on Protein A chip, antigen flown over

Sequence of TIGIT on activated CD8 T-cells (human) (Q495A1 22-244 limits assumed): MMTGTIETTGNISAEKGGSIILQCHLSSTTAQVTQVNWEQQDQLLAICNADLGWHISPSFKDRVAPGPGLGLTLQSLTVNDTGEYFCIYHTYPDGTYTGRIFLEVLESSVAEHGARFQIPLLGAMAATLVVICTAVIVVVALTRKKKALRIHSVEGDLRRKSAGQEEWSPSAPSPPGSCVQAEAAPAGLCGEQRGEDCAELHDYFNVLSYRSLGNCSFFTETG
Sequence of TIGIT on Vδ1 γδ T-cells (human) (Q495A1 22-244, stated change not applied): as the sequence (Q495A1 22-244 limits assumed) above

EC50 (read off the curve) [1]: 8 nM
EC50 (read off the curve) [2]: 0.4 nM
Kd [3]: 0.3 nM
Substance: Anti-TIGIT antibody (based on tiragolumab)

EC50 (read off the curve) [4]: 0.1 nM
Kd [5]: 0.82 nM
Substance: Anti-OX40 antibody (based on pogalizumab)

EC50 (read off the curve) [6]: 0.1 nM
EC50 (read off the curve) [7]: 0.2 nM
Substance: Anti-PD-1 antibody (based on pembrolizumab)

EC50 (read off the curve) [8]: 0.08 nM
Kd [9]: 3.9 nM
Substance: Anti-FAPα monoclonal antibody (based on sibrotuzumab)
